Source: patent publication US20230340114A1 (IMMUNE ONC THERAPEUTICS, published 2023)

B1: 4ab-3 (bispecific antibody, human IgG1, kappa, L234A L235A)
heavy 1: not shown
heavy 2: EVQLVESGGGLVQPGGSLRLSCAASGFSLSSSYWISWVRQAPGKGLEWIGSIDSGSVGITYYATWVKGRFTISRDNSKNTLYLQMNSLRAEDTAVYYCARHGDNWALDLWGQGTLVTVLEDLKNVFPPEVAVFEPSEAEISHTQKATLVCLATGFYPDHVELSWWVNGKEVHSGVCTDPQPLKEQPALQDSRYALSSRLRVSATFWQNPRNHFRCQVQFYGLSENDEWTQDRAKPVTQIVSAEAWGRASDKTHTCPPCPAPEAAGGPSVFLFPPKPKDTLMISRTPEVTCVVVDVSHEDPEVKFNWYVDGVEVHNAKTKPREEQYNSTYRVVSVLTVLHQDWLNGKEYKCKVSNKALPAPIEKTISKAKGQPREPQVCTLPPSREEMTKNQVSLSCAVKGFYPSDIAVEWESNGQPENNYKTTPPVLDSDGSFFLVSKLTVDKSRWQQGNVFSCSVMHEALHNHYTQKSLSLSPG
light 1: not shown
light 2: DIQMTQSPSTLSASVGDRVTITCRASQSISSWLAWYQQKPGKAPKLLIYKASTLASGVPSRFSGSGSGTEFTLTISSLQPDDFATYYCQHGYIRGDLDNVFGGGTKVEIKPDIQNPDPAVYQLRDSKSSDKSVCLFTDFDSQTQVSQSKDSDVYITDKCVLDMRSMDFKSNSAVAWSQKSDFACANAFQNSIIPEDTFFPSPESS
notes: also called first-generation LILRB4/CD3 bispecific antibody No. 2
B2: 4ab3-4ab (bispecific antibody, human IgG1, kappa, L234A L235A)
heavy 1: not shown
heavy 2: B1 heavy 2
light 1: not shown
light 2: B1 light 2
notes: also called first-generation LILRB4/CD3 bispecific antibody No. 6
B3: 4-3ab (bispecific antibody, human IgG1, kappa, L234A L235A)
heavy 1: not shown
heavy 2: EVQLVESGGGLVQPGGSLRLSCAASGFSLSSSYWISWVRQAPGKGLEWIGSIDSGSVGITYYATWVKGRFTISRDNSKNTLYLQMNSLRAEDTAVYYCARHGDNWALDLWGQGTLVTVSSASTKGPSVFPLAPSSKSTSGGTAALGCLVKDYFPEPVTVSWNSGALTSGVHTFPAVLQSSGLYSLSSVVTVPSSSLGTQTYICNVNHKPSNTKVDKRVEPKSCDKTHTCPPCPAPEAAGGPSVFLFPPKPKDTLMISRTPEVTCVVVDVSHEDPEVKFNWYVDGVEVHNAKTKPREEQYNSTYRVVSVLTVLHQDWLNGKEYKCKVSNKALPAPIEKTISKAKGQPREPQVCTLPPSREEMTKNQVSLSCAVKGFYPSDIAVEWESNGQPENNYKTTPPVLDSDGSFFLVSKLTVDKSRWQQGNVFSCSVMHEALHNHYTQKSLSLSPG
light 1: DIVMTQSPDSLAVSLGERATINCKSSQSLLNSRTRKNYLAWYQQKPGQPPKLLIYWASTRQSGVPDRFSGSGSGTDFTLTISSLQAEDVAVYYCTQSHTLRTFGGGTKVEIKPDIQNPDPAVYQLRDSKSSDKSVCLFTDFDSQTQVSQSKDSDVYITDKCVLDMRSMDFKSNSAVAWSQKSDFACANAFQNSIIPEDTFFPSPESS
light 2: DIQMTQSPSTLSASVGDRVTITCRASQSISSWLAWYQQKPGKAPKLLIYKASTLASGVPSRFSGSGSGTEFTLTISSLQPDDFATYYCQHGYIRGDLDNVFGGGTKVEIKRTVAAPSVFIFPPSDEQLKSGTASVVCLLNNFYPREAKVQWKVDNALQSGNSQESVTEQDSKDSTYSLSSTLTLSKADYEKHKVYACEVTHQGLSSPVTKSFNRGEC
notes: LILRB4 arm from H7K3m5, CD3 arm from WO2019057099; human IgG1 constant domains with knob-in-hole and effector-reducing mutations; also called first-generation LILRB4/CD3 bispecific antibody No. 1

Assays:
[1] = molecular target: T1, human LILRB4 expressed on cells (human, UniProt Q8NHJ6 22-448); assay: cell-based or functional assay
[2] = molecular target: T2, recombinant human LILRB4 protein (Sino Biological, cat #16742-H08H) (human, UniProt Q8NHJ6 22-259); assay: SPR (Biacore 8K), LILRB4 immobilized on CM5 chip, bispecific as analyte, 1:1 model
T2 construct: extracellular domain; also called LILRB4 recombinant protein (Sino Biological); Human LILRB4 ECD-his; not shown: his tag
Description: (§1) Binding affinities of first-generation bispecific antibodies to recombinant CD3e-CD3d heterodimer protein (Acro Biosystems) or LILRB4 recombinant protein (Sino Biological) were measured by surface plasmon resonance using a Biacore 8K instrument. Briefly, CD3e-CD3d or LILRB4 protein was immobilized on a CM5 chip with EDC and NHS according to standard protocols. […] The chip was regenerated using 10 mM glycine pH 1.5 as the regeneration buffer. The sensorgrams for reference channel Fc1 and buffer channel were subtracted from the test sensorgrams and the experimental data was fitted by 1:1 binding model.

[3] = molecular target: recombinant CD3e-CD3d heterodimer protein (Acro Biosystems) (UniProt P07766 23-126; P04234 22-105); assay: SPR (Biacore 8K), CD3e-CD3d immobilized on CM5 chip, bispecific as analyte, 1:1 model
Sequence of recombinant CD3e-CD3d heterodimer protein (Acro Biosystems) (P07766 23-126 limits assumed, chain 1 of 2): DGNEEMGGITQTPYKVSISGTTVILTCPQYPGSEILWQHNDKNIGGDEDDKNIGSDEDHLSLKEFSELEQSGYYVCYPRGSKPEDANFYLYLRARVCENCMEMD
Sequence of recombinant CD3e-CD3d heterodimer protein (Acro Biosystems) (P04234 22-105 limits assumed, chain 2 of 2): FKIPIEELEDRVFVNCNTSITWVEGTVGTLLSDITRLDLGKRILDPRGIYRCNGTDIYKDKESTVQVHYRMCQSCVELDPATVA
Description: as §1

[4] = molecular target: T1, human LILRB4 expressed on cells; assay: FACS (Geo MFI) on normal human monocytes; panel assigned to monocytes by the order in legend paragraph 86

Binder | Monocyte (max %), Donor 1 [1] | Monocyte (max %), Donor 2 [1] | Monocyte (max %), Donor 3 [1] | Monocyte killing EC50, Donor 2 [1] | Monocyte killing EC50, Donor 3 [1] | T-cell cytotoxicity, THP-1 (max %) [1] | T-cell cytotoxicity, THP-1 EC50 [1] | Kd [2] | Kd [3] | EC50 (read off the curve) [4] | Monocyte killing EC50, Donor 1 [1] | T-cell cytotoxicity, THP-1 EC50 (estimated) [1]
B1 | 43% | 34% | 32.5% | 29 pM | 9.25 pM | 98.6% | 0.084 pM | 270 pM | 33400 pM | ~400 pM |  | 
B2 | 29% | 44% | 44% | 0.93 pM | 1.6 pM | 98.1% |  | 260 pM | 57300 pM |  | 0.43 pM | < 0.01 pM
B3 | 43% | 41% | 13% | 9.4 pM |  | 98% | 0.36 pM | 190 pM | 49600 pM | ~800 pM |  | 
